Tests used:
SEC = molecular target: the molecule itself; assay: SEC
His6-KstRMtb (KstR) [1] = molecular target: T1, His6-KstRMtb (KstR) (Mycobacterium tuberculosis H37Rv, UniProt P96856 22-220); assay: EMSA
T1 sequence: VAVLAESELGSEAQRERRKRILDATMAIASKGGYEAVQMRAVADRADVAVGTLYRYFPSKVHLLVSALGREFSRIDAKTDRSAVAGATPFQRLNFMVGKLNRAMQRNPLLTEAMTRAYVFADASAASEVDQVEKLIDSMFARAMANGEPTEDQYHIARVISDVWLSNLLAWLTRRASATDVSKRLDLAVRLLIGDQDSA

His6-KstRMtb (KstR) [2] = molecular target: T1, His6-KstRMtb (KstR); assay: competition

Binder	binding result (His6-KstRMtb (KstR) [1])	other results
His6-tagged KstRMtb (Mycobacterium tuberculosis TetR-type regulator Rv3574) (natural protein) MSSANTNTSSAPDAPPRAVMKVAVLAESELGSEAQRERRKRILDATMAIASKGGYEAVQMRAVADRADVAVGTLYRYFPSKVHLLVSALGREFSRIDAKTDRSAVAGATPFQRLNFMVGKLNRAMQRNPLLTEAMTRAYVFADASAASEVDQVEKLIDSMFARAMANGEPTEDQYHIARVISDVWLSNLLAWLTRRASATDVSKRLDLAVRLLIGDQDSA		stoichiometry N (SEC): 2
Rv3573c/Rv3574 (kstR) 29 bp probe (dsDNA) DNA 1: TGCCCACTAGAACGTGTTCTAATAGTGCT DNA 2: AGCACTATTAGAACACGTTCTAGTGGGCA	binds	
unlabelled kstR 29 bp probe (dsDNA) DNA 1: TGCCCACTAGAACGTGTTCTAATAGTGCT DNA 2: AGCACTATTAGAACACGTTCTAGTGGGCA		binding result (His6-KstRMtb (KstR) [2]): binds
Rv1894c/Rv1895 probe (dsDNA) DNA 1: ATAGAACTGAAACGTGTTCTAGTTTAGTA DNA 2: TACTAAACTAGAACACGTTTCAGTTCTAT	binds	
Rv3503c/Rv3504 probe (dsDNA) DNA 1: CAGAGACTAGAACGTGTTACAACCGGGAA DNA 2: TTCCCGGTTGTAACACGTTCTAGTCTCTG	binds	
Rv3515c/Rv3516 probe (Table 2 prints Rv3515c/Rv3532) (dsDNA) DNA 1: ACCAAACTAGAACGTGTTACATTTCTTGA DNA 2: TCAAGAAATGTAACACGTTCTAGTTTGGT	binds	
Rv3520c/Rv3521 probe (dsDNA) DNA 1: TGTCGAGTAGAACAGGTTCTAACAACGGT DNA 2: ACCGTTGTTAGAACCTGTTCTACTCGACA	binds	
Rv3531c/Rv3532 probe (dsDNA) DNA 1: TCGACACTAGAACGTGTTCCTGTTTTGCG DNA 2: CGCAAAACAGGAACACGTTCTAGTGTCGA	binds	
Rv3545c/Rv3546 probe (dsDNA) DNA 1: ATAGTAATGAAACGTGTTCTAGCCTGGCC DNA 2: GGCCAGGCTAGAACACGTTTCATTACTAT	binds	
Rv3570c/Rv3571 probe, motif 1 (dsDNA) DNA 1: GAAAGACTAGAACACGTTCCGATTTGTGT DNA 2: ACACAAATCGGAACGTGTTCTAGTCTTTC	binds	
Rv3570c/Rv3571 probe, motif 2 (dsDNA) DNA 1: TCATAACTAGAACATGTTACAGAAAACCC DNA 2: GGGTTTTCTGTAACATGTTCTAGTTATGA	binds	
Rv0223c probe (dsDNA) DNA 1: GCGAAACGAGAACGTGTTCCATTATTAGG DNA 2: CCTAATAATGGAACACGTTCTCGTTTCGC	no binding	
Rv0551c/Rv0552 probe (dsDNA) DNA 1: TCCAAATTGCAACACGTTCTAGTCTTGCC DNA 2: GGCAAGACTAGAACGTGTTGCAATTTGGA	binds	
Rv0940c probe (dsDNA) DNA 1: GTCAAATTAGAACACGTTCTAATCTCGTT DNA 2: AACGAGATTAGAACGTGTTCTAATTTGAC	binds	
Rv0953c/Rv0954 probe (dsDNA) DNA 1: GCGCAGGTGGAACACGTTCTAATTCGGTG DNA 2: CACCGAATTAGAACGTGTTCCACCTGCGC	binds	
